Assay results: US20250090677A1 (MULTITUDE THERAPEUTICS, published 2025)
Residue numbers refer to the chain shown, from its start.

Legend:
Human CDH6-ECD-His = target: T1, Human CDH6-ECD-His (human, UniProt P55285 54-615); test: BLI (Octet), antibody on AHC sensor, antigen 3.13-100 nM, 1:1 model
T1 construct: extracellular domain; Bought protein; also called human CDH6-ECD-His recombinant protein; Human CDH6-EC6D-His; not shown: His tag
T1 sequence (looked up): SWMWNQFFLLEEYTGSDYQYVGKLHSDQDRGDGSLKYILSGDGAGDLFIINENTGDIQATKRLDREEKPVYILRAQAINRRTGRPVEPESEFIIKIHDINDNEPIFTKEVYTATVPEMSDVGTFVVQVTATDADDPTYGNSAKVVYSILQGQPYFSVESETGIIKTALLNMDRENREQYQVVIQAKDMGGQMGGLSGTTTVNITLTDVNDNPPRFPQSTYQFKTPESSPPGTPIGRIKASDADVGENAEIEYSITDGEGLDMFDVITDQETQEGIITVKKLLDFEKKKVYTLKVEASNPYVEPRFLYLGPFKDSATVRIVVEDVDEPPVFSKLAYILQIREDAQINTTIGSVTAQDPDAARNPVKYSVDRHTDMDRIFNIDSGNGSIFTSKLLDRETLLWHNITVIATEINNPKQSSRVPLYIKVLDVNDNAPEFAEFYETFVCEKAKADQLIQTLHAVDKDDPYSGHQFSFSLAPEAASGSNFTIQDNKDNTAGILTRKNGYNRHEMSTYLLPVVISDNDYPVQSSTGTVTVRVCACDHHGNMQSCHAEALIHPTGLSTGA
Protocol: (§1) Binding affinities of CL069707-H1L1 and Ch069707 were measured using the Octet® system based on Bio-Layer Interferometry (BLI) technique. Antibodies were loaded to AHC (Anti-hIgG Fc Capture) at 100 nM concentration. […] From the six different binding curves obtained from each antigen concentration, binding constants (KD) were calculated based on the 1:1 binding model. CL069707-H1L1 and Ch069707 binds to human CDH6-ECD-His antigen with similar affinity. CL069707-H1L1 binds to human CDH6-ECD-His and cyno monkey CDH6-ECD-His antigens with similar affinity.

cyno monkey CDH6-ECD-His = target: T2, cyno monkey CDH6-ECD-His (cyno monkey, UniProt A0A2K5TW62 54-615); test: as above
T2 construct: extracellular domain; Bought protein; also called Cyno CDH6-ECD-His; not shown: His tag
T2 sequence: T1 sequence (looked up) with Y300H, H457R
Protocol: as §1

[1] = target: T3, CDH6 on the cell surface of OVCAR-3 cells (human ovarian cancer cells) (human, UniProt P55285 54-790); test: flow cytometry (FACS) on OVCAR-3 cells, antibody titration, labelled secondary antibody, MFI
T3 construct: whole, on cells; also called CDH6-positive human ovarian cancer cell line OVCAR-3
T3 sequence (looked up): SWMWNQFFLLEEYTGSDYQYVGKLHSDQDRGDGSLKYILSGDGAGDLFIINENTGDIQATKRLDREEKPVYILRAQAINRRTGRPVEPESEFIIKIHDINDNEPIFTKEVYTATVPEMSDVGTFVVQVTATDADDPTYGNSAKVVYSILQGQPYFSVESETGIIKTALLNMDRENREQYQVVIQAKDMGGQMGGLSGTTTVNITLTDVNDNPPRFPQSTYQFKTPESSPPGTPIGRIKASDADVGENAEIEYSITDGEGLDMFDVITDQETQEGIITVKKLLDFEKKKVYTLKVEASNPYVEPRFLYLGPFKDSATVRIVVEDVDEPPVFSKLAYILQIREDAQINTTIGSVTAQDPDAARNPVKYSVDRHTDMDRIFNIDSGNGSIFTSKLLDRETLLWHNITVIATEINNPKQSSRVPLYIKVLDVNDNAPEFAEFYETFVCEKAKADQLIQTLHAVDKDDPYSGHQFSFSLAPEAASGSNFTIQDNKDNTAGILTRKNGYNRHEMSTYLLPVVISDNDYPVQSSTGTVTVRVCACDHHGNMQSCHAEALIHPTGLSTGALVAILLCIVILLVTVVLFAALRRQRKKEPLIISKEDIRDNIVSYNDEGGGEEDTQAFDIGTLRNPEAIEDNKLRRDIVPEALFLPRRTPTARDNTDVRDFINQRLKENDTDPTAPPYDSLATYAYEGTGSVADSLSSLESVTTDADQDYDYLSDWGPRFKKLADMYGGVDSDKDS
Protocol: The binding EC50 of the humanized antibodies on tumor cell were tested as follow. Human ovarian cancer cell line OVCAR-3(purchased from National Collection of Authenticated Cell Cultures) cell culture was maintained in vitro as independent monolayer cultures at 37° C. in an atmosphere of 5% CO₂. The cells were harvested using trypsin-EDTA partial digestion followed by centrifugation at 1000 rpm for 5 minutes. The cell was resuspended in cold PBS and serial dilution of Ch069707 and CL069707-H1L1, CL069707-H1L2, CL069707-H2L1 and CL069707-H2L2 antibodies were added. Ch069707 antibody was a chimeric antibody. The variable regions were the same as those of CL069707, and the constant region was the same as human IgG1 constant regions (SEQ ID NO: 70 and SEQ ID NO: 71). The cell solutions were mixed, incubated at 4° C. and washed with cold PBS prior to addition of secondary antibody conjugates (for detection purposes). After incubation at 4° C., the cells were washed with PBS, and then subjected to flow cytometry (FACS) analysis.

Kd (Human CDH6-ECD-His): 2.28 nM | Kd (cyno monkey CDH6-ECD-His): 2.19 nM | EC50 (read off the curve) [1]: ~0.7 nM
B1: Ch069707 (antibody, human IgG1, kappa, V domains shown)
VH: EVHLVESGGGLVQPKGSLKLSCVASGFTFTTYAMNWVRQAPGKGLEWVARIRIKNNNYATYYADSVTDRFTISRDDSQSMLYLQMNNLKTEDTAMYYCVRPDYGNYGLAYWGQGTLVTVSA
VL: EIVLTQSPTTMAASPGEKITITCSASSSISSHYLHWYQQKPGFSPKLLIYRSFYLASGVPLRFTGSGSGTSYSLTIGTMEAEDVATYYCQQDIVPLTFGAGTKLELKR
notes: also called anti-CDH6 chimeric antibody Ch069707
